# Source: the DeepSol protein solubility set
# Test: soluble on expression in E. coli; label from the status in PepcDB or PDB records
row,Sequence,soluble on expression in E. coli
1,MYMASISLKKGQKVDLTKTNPGLSKVLVGLGWDTNRYDGQNDFDLDVSIFLVGANGKVSGAEDFVFYNNPKGANGAVEHLGDNRTGEGEGDDEAIKVDLKNVPAHIERICFTITIYDGEGRSQNFGQVSNSFVRILDEEKNAELIRYDLGEDFSIETAVVVGELYRHAGDWKFNAIGSGFQGGLASLCNNFGLDVE,not soluble
2,MRGLSLSPVVLPEVRREAGVELRKARLEDVDAIYWLIRYWAEKGLMLVRSHSHLYENIRDFWVLEDEDGQIVGTVALHVLWRDLAEIRGLAVHPTRQGQGLGRWLVLGAEREARDLGLPRVFAWTLQVNFFRALGYRVTSR,not soluble
3,MKIHTTEALMKAEISRRSLMKTSALGSLALASSAFTLPFSQMVRAAEAPVEEKAVWSSCTVNCGSRCLLRLHVKDDTVYWVESDTTGDDVYGNHQVRACLRGRSIRRRMNHPDRLKYPMKRVGKRGEGKFERISWDEALDTISDNLRRILKDYGNEAVHVLYGTGVDGGNITNSNVPYRLMNSCGGFLSRYGSYSTAQISAAMSYMFGANDGNSPDDIANTKLVVMFGNNPAETRMSGGGVTYYVEQARERSNARMIVIDPRYNDTAAGREDEWLPIRPGTDGALACAIAWVLITENMVDQPFLDKYCVGYDEKTLPANAPRNAHYKAYILGEGPDGIAKTPEWAAKITSIPAEKIIQLAREIGSAKPAYICQGWGPQRHSNGEQTSRAIAMLSVLTGNVGINGGNSGVREGSWDLGVEWFPMLENPVKTQISVFTWTDAIDHGTEMTATRDGVRGKEKLDVPIKFLWCYASNTLINQHGDINHTHEVLQDDSKCEMIVGIDHFMTASAKYCDILLPDLMPTEQEDLISHESAGNMGYVILAQPATSAKFERKPIYWMLSEVAKRLGPDVYQTFTEGRSQHEWIKYLHAKTKERNPEMPDYEEMKTTGIFKKKCPEEHYVAFRAFREDPQANPLKTPSGKIEIYSERLAKIADTWELKKDEIIHPLPAYTPGFDGWDDPLRKTYPLQLTGFHYKARTHSSYGNIDVLQQACPQEVWINPIDAQARGIRHGDTVRVFNNNGEMLIAAKVTPRILPGVTAIGQGAWLKADMFGDRVDHGGSINILTSHRPSPLAKGNPSHSNLVQIEKV,not soluble
4,ENVLTQSPAIMSPSPGEKVTMTCRARSSVSSSYLHWYQQKSGASPKLWIYSTSNLASGVPARFSGSGSGTSYSLTISSVEAEDTATYYCQQYSGNPWTFGGGTKLEIKRADAAPTVSIFPPSSEQLTSGGASVVCFLNNFYPKDINVKWKIDGSERQNGVLNSWTDQDSKDSTYSMSSTLTLTKDEYERHNSYTCEATHKTSTSPIVKSFNRNEC,soluble
5,MSDPRDLMSEFQKLRVETSKIQNEFKEKPGYVEDKLHKNTQEICQQILKKQGKSQKSQENQNAFIENLMSELKTAKSKLNETENQISDLHEATKQQESQANLWNDLVAKISDKNLEMMLKIQKSQDLMIMKMQEGSAVQDVPIETEKSAKNGPFFEILVIWTDSRGPVVPGNHGKLRVCGSDTIRQIKPRINSLAGIDTISFRTFCDDKFLEDDHTLAHYNIREGSTICVFFH,not soluble
6,MALAVRKQLLYELIDRLDETDHQTAYDFLMYLLDRSRKERMVWERIDETDEEEALTEEERQQLQSDEGYITGGEAKREFGLQVDLP,not soluble
7,PRVSLFFFSADTDDHAWDKHALVLECAELADSLGLDAIWVPERHFDPFGAPYPSPGLLLAAIAARTSRIALRSGSVVLPLRDPLLVAEEWGVLDSLSRGRMGISLASGWHADDFVLNPEGYERRKDVLEERLADLHTLWNGASITRKGPGGRPVEVRTYPRPERTPEVWLTSSRNPDTWRTAGRLNLHVLTALLEQTIDEITERVGLYHQALTEAGHPTDGRQVTCMLHTHLASDPASVEQRVRGPLIRYLSAHMDLFSKYAAGGGAGIDPDEVTEADRQALLEHGLRRYMGTSGLFGSAESCLPKVERLGAAGITELGCLVDFGLPREQVLESVEELGRLRVALRETAGAPK,soluble
8,MPAAQEVQISIAEVIEVRGYGLNAPELLSVAVSAADRLPPCPKGTVFDTENVFLNSKGELVIKTVATSRVDRSFVPPEWAKGEEDAQAAAVYCLGAVLRAAGAEEAADVDLFSLVNILTVAMTGTRPTAHRMGQMARNQLRGRDPASMLMCIYEELMGDEDTNQKRPNRKINFLNEKSMF,not soluble
9,QVKLLESGPELVKPGASVKMSCKASGYTFTSYVMHWVKQKPGQGLEWIGYINPYNDGTKYNEKFKGKATLTSDKSSSTAYMELSSLTSEDSAVYYCVRGGYRPYYAMDYWGQGTSVTVSSAKTTPPSVYPLAPGSAAQTNSMVTLGCLVKGYFPEPVTVTWNSGSLSSGVHTFPAVLQSDLYTLSSSVTVPSSTWPSETVTCNVAHPASSTKVDKKIVPRDCTSHHHHHH,soluble
10,MIRITLHTYCISELFSGDLELFASKLEETSQNQKTYSTPRSSDFRAILPTYSTPRSSDFGAILPIHSTTRLSNLSSGHSMTLLDPLVEYHFATLPDNTRPFTLPSYSTPWSSIITHHHQHHSTGHSITSSQSTQIRTQPDKLSTRKRRGEDKVFGSGLDLHRIKKPISAHYLSMGRAIRLLARLLSFYFVLYK,soluble
11,MAKQELSAREAVTEAKCYLNNAKEILREKGAKTEGYYRDSKYVKMAGDTAYSGVLFVLDHYFGEKAKGRKDVDWYRINLSKEDRKMLDSFTAVYEQLHL,not soluble
12,MSLSTADALDDENTFKILVATDIHLGFMEKDAVRGNDTFVTLDEILRLAQENEVDFILLGGDLFHENKPSRKTLHTCLELLRKYCMGDRPVQFEILSDQSVNFGFSKFPWVNYQDGNLNISIPVFSIHGNHDDPTGADALCALDILSCAGFVNHFGRSMSVEKIDISPVLLQKGSTKIALYGLGSIPDERLYRMFVNKKVTMLRPKEDENSWFNLFVIHQNRSKHGSTNFIPEQFLDDFIDLVIWGHEHECKIAPTKNEQQLFYISQPGSSVVTSLSPGEAVKKHVGLLRIKGRKMNMHKIPLHTVRQFFMEDIVLANHPDIFNPDNPKVTQAIQSFCLEKIEEMLENAERERLGNSHQPEKPLVRLRVDYSGGFEPFSVLRFSQKFVDRVANPKDIIHFFRHREQKEKTGEEINFGKLITKPSEGTTLRVEDLVKQYFQTAEKNVQLSLLTERGMGEAVQEFVDKEEKDAIEELVKYQLEKTQRFLKERHIDALEDKIDEEVRRFRETRQKNTNEEDDEVREAMTRARALREGHHHHHH,not soluble
13,MQMQVLTNTKFETVAFQWPAGFYSDGIHIGLRRHKKDFGWLFSKVPASAAGTYTTNQFQAAPTKLTKQMIDQGHQLQGLLLNSAIANSCTGEQGWQNALQEQAWLANKLNVAPNLIGVASTGLIGAQLPMDKIKNGLPQLTPTKSDAVTYAVLTTDQHPKTVCVQCELSGQLVTLTGFAKGSGMIHPKMATMLGFVTTDAQIDGPVLQDMLSTNVDQTFNQITVDGDTSTNDMVVTLANGLADNPSLQAGTTDYDIFNQALHYVLGQLAKQIAADGEGATKLVECNVVHAATTFDGQQIAKAIVGSNLVKAAIFGEDPNWGRIISTIGATDADIDVATVDIEMNGVLLVQQSLAVDFDMAAVQATLRDNQIMIDVDLHHGTASGQAWGCDLTYNYVKINASYHTLEHHHHHH,not soluble
14,MGSDKIHHHHHHMKRNESKYKQVVNHVIDGINNGSYKKGDWILSINEFRKNYNLSRDTVFAGLSELKSKGIIDSTPGVGYYIATTRIAQKLNIFLLFNEFNEFKEDLYNSFISSIRKTANVDLYFHNYNRKVFETLINEANYKYTTYILMPGKFTNIAPLLESLSGRVFLLDHFHPELAGKYSSVAQNFEKDTYEALVYGLPHLKKYDHIIMVQKEEKEPIERYNGLCAFCEEYHFTHEYTDSVRNREIRQGETFMVVNDRDLVDLLKQAQLQNFAPGKDFGIISYNDTPLKEILAGGITTLSTDFKQMGQTMASLITQKEIKTIENPWKLDIRNSL,not soluble
15,MGFHPRVPEGEVARRIAAVGAAIDRVIGERKRKISGQMIGRAVIRERRRCVWLERSEVPLDVIREGEAFVVRFANPDGSLGQPHQLLSSWMPGDPVLEHHHHHH,not soluble
